Biological target: AtWRKY50 full length fused to a half of yellow fluorescent protein (BiFC) (Arabidopsis, UniProt Q8VWQ5 1-173)
Assay: cell-based or functional assay

AtWRKY50 full length fused to a half of yellow fluorescent protein (BiFC), sequence (Q8VWQ5 whole entry, the tested form may be a part): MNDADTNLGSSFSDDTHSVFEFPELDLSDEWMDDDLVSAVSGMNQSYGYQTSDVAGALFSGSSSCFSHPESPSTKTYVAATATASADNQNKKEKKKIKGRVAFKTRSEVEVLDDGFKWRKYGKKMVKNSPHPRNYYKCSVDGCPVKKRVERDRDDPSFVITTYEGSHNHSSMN

B1: TGA2 full length fused to a half of yellow fluorescent protein (BiFC) (natural protein, Arabidopsis, UniProt P43273 1-330, looked up)
chain: MADTSPRTDVSTDDDTDHPDLGSEGALVNTAASDSSDRSKGKMDQKTLRRLAQNREAARKSRLRKKAYVQQLENSRLKLTQLEQELQRARQQGVFISGTGDQAHSTGGNGALAFDAEHSRWLEEKNKQMNELRSALNAHAGDSELRIIVDGVMAHYEELFRIKSNAAKNDVFHLLSGMWKTPAERCFLWLGGFRSSELLKLLANQLEPMTERQLMGINNLQQTSQQAEDALSQGMESLQQSLADTLSSGTLGSSSSGNVASYMGQMAMAMGKLGTLEGFIRQADNLRLQTLQQMIRVLTTRQSARALLAIHDYFSRLRALSSLWLARPRE
PR1::GUS reporter expression in Arabidopsis protoplasts co-transfected with 35S::AtWRKY50 and 35S::TGA2 (AtWRKY50 alone approximately 7-fold, TGA alone 2-fold): ≤ 14 fold

B2: TGA5 full length fused to a half of yellow fluorescent protein (BiFC) (natural protein, Arabidopsis, UniProt Q39163 1-330, looked up)
chain: MGDTSPRTSVSTDGDTDHNNLMFDEGHLGIGASDSSDRSKSKMDQKTLRRLAQNREAARKSRLRKKAYVQQLENSRLKLTQLEQELQRARQQGVFISSSGDQAHSTAGDGAMAFDVEYRRWQEDKNRQMKELSSAIDSHATDSELRIIVDGVIAHYEELYRIKGNAAKSDVFHLLSGMWKTPAERCFLWLGGFRSSELLKLIASQLEPLTEQQSLDINNLQQSSQQAEDALSQGMDNLQQSLADTLSSGTLGSSSSGNVASYMGQMAMAMGKLGTLEGFIRQADNLRLQTYQQMVRLLTTRQSARALLAVHNYTLRLRALSSLWLARPRE
PR1::GUS reporter expression in Arabidopsis protoplasts co-transfected with 35S::AtWRKY50 and 35S::TGA5 (AtWRKY50 alone approximately 7-fold, TGA alone 2-fold): ≤ 14 fold
